{
  "source": "patent US6432692B1",
  "about": "“Sensitive bioassay for detecting agonists of the aryl hydrocarbon receptor” (Wisconsin Alumni Research Foundation, priority 1999, dated 2002)",
  "molecules": {"B1": {"name": "ARA9: 37 kDa Ah receptor-associated protein, immunophilin structurally similar to FKBP52 (protein, UniProt O08915 1-330, looked up)", "AH receptor-interacting …": "MADLIARLREDGIQKRVIQEGRGELPDFQDGTKATFHFRTLHSDNEGSVIDDSRTRGKPMELIVGKKFKLPVWETIVCTMREGEIAQFLCDIKHVVLYPLVAKSLRNIAEGKDPLEGQRHCCGIAQMHEHSSLGHADLDALQQNPQPLIFHIEMLKVESPGTYQQDPWAMTDEEKAKAVPVIHQEGNRLYREGQVKEAAAKYYDAIACLKNLQMKEQPGSPDWIQLDLQITPLLLNYCQCKLVAQEYYEVLDHCSSILNKYDDNVKAYFKRGKAHAAVWNAQEAQADFAKVLELDPALAPVVSRELRALETRIRQKDEEDKARFRGIFSH"}},
  "system": "AHR",
  "assay": "Coimmunoprecipitation of 35S-labeled AHR with T7-tagged ARA9 or FKBP52",
  "assay_type": "binding",
  "conditions": "T7-agarose coimmunoprecipitation, reticulocyte lysate AHR",
  "protocol": "Bacterial Expression: The ARA9 and FKBP52 proteins tagged with the T7 peptide (PL799, PL1004, PL1005 and PL947) were expressed in BL21(DE3) bacteria (Novagen). The T7 tag is an 11 amino acid peptide, MASMTGGQQMG, that facilitates detection and purification of the recombinant protein using anti-T7 antibodies (Novagen). Saturated cultures were used to inoculate LB growth media supplemented with 0.4 mM IPTG and 100 μg/ml ampicillin. The bacteria were allowed to grow an additional 4 hours at 37° C and pelleted by centrifugation at 5000×g for 5 min. The pellet was resuspended in bind/wash buffer (4.29 mM Na2HPO4, 1.47 mM KH2PO4, 2.7 mM KCl, 0.137 M NaCl, 0.1% (v/v) Tween and 0.002% (w/v) NaN3). The resulting mixture was disrupted using four ×15 second sonic pulses on ice. Insoluble debris was removed by centrifugation at 12,000×g for 20 minutes at 4° C. The supernatant was passed through a […] filter and protein concentrations determined by the BCA protein assay (Pierce, Rockford Ill.). […] The complexes were then precipitated and analyzed by SDS-PAGE and autoradiography.\nSpecificity of ARA9 for AHR: The structural similarity between ARA9 and FKBP52 led us to compare the relative capacity of these two factors to bind AHR. […] The AHR-ARA9 or AHR-FKBP52 associations were determined by coimmunoprecipitation with T7-agarose.",
  "data": [
    {"molecule": "B1", "values": [
      {"measurement": "efficiency at precipitating AHR relative to FKBP52", "value": "approximately four times more efficient"}
    ]}
  ]
}
